Paper PMC2953525, “Subtle Alterations in PCNA-Partner Interactions Severely Impair DNA Replication and Repair” (PLoS Biology, 2010)
Residue numbers refer to the chain shown, from its start.

B1: pol30-Msh6E6: PCNA mutant evolved for Msh6, IDCL sequence DYDKDLLKIIEL (protein)
chain: MLEAKFEEASLFKRIIDGFKDCVQLVNFQCKEDGIIAQAVDDSRVLLVSLEIGVEAFQEYRCDHPVTLGMDLTSLSKILRCGNNTDTLTLIADNTPDSIILLFEDTKKDRIAEYSLKLMDYDKDLLKIIELQYDSTLSLPSSEFSKIVRDLSQLSDSINIMITKETIKFVADGDIGSGSVIIKPFVDMEHPETSIKLEMDQPVDLTFGAKYLLDIIKGSSLSDRVGIRLSSEAPALFQFDLKSGFLQFFLAPKFNDEE
modifications: left off: Gal4 activation domain, end not stated, kept
B2: pol30-Rad30E2: PCNA mutant evolved for Rad30, IDCL sequence DDDWDFLKILEL (protein)
chain: B1 chain with Y121D, K123W, L125F, I129L
modifications: left off: Gal4 activation domain, end not stated, kept
B3: pol30-Pol32E9 (protein)
chain: B1 chain with Y121N, K123V, L125S
modifications: left off: Gal4 activation domain, end not stated, kept
B4: pol30-Pol32E5: PCNA mutant evolved for Pol32, IDCL sequence DADNDFLKISEL (protein)
chain: B1 chain with Y121A, K123N, L125F, I129S
modifications: left off: Gal4 activation domain, end not stated, kept
B5: pol30-79: previously studied PCNA mutant with decreased partner binding, IDCL sequence DIDADFAKAEEL (protein)
chain: B1 chain with Y121I, K123A, L125F, L126A, I128A, I129E
modifications: left off: Gal4 activation domain, end not stated, kept
B6: pol30-Rad27E6: PCNA mutant evolved for Rad27, IDCL sequence DGDYDILKIREL (protein)
chain: B1 chain with Y121G, K123Y, L125I, I129R
modifications: left off: Gal4 activation domain, end not stated, kept
B7: pol30-Msh6E2: PCNA mutant evolved for Msh6, IDCL sequence DYDRDMLKISEL (protein)
chain: B1 chain with K123R, L125M, I129S
modifications: left off: Gal4 activation domain, end not stated, kept
B8: pol30-Rad30E9: PCNA mutant evolved for Rad30, IDCL sequence DNDWDFLKIDEL (protein)
chain: B1 chain with Y121N, K123W, L125F, I129D
modifications: left off: Gal4 activation domain, end not stated, kept

system: Apn2; assay: Yeast two hybrid (Y2H) analysis of PCNA-partner interaction; assay type: binding; design: key: ++: major increase in growth; +: moderate increase in growth; similar growth as the WT PCNA-expressing cells; -: minor decrease in growth; --: moderate decrease in growth; ---: major decrease in growth; conditions: spotting onto selective agar plates; PCNA fused to AD, partner to BD
Description: (§1) Y2H analysis was performed using the Yeast Two Hybrid Phagemid vector kit (Stratagene), following the manufacturer's instructions. The pAD-PCNA-WT/mutant plasmids were used as bait while plasmids encoding 12 different PCNA partners (Table 1 and Table S1) were used as prey. The YRG2 host strain (Stratagene) was cotransformed with pAD-PCNA WT/mutant and pBD-partner plasmids in all possible combinations using the LiAC method. Single transformants were grown in liquid SC-Leu-Trp to O.D600 10, washed twice with DDW, and diluted to an initial OD600 of 0.3. A series of 10-fold serial dilutions was then spotted onto selective SC-Leu-Trp-His plates and incubated at 30°C for 3 d. For quantitative Y2H, the generation time of the indicated mutants and their respective partners were calculated from their growth curves in liquid SC-Leu-Trp-His media. Cells were grown overnight in SC-Leu-Trp, washed twice with ddH2O, and diluted by a factor of 1∶50 into 10 ml of pre-warmed SC-Leu-Trp-His. O.D600 measurements of the cultures were taken at the indicated time; the generation time (τ) was calculated from the growth curves according to the equation ODt = OD0×2^t/τ. The generation time calculated for each culture is an average of at least 3 independent experiments.
(§2) Table S1: Yeast two hybrid analysis of binding of selected PCNA mutants with seven additional partners not described in Table 1 of the main text. […]
(§3) pol30-Rad30E2 WT WT WT WT WT WT - pol30-Rad30E9 WT WT WT WT WT WT WT pol30-Rad27E6 WT WT WT WT + WT WT pol30-Rad27E31 WT WT WT WT + WT WT pol30-Rad27L1 WT -- WT WT -- WT WT pol30-Rad27L2 WT -- WT WT -- WT WT pol30-Pol32E5 WT WT WT WT WT WT WT pol30-Pol32E9 - WT WT WT WT WT WT pol30-Msh6E2 WT WT + WT WT WT WT pol30-Msh6E6 WT WT ++ WT WT WT WT pol30-Ung1E3 WT - WT WT WT WT WT pol30-79 --- --- --- - --- --- --- a PCNA mutants with enhanced affinities for the different target partners (see Table 1, text). b PCNA mutants were fused to the activating domain (AD), while the different partners were fused to the DNA-binding domain (BD). The growth of the resulting Y2H strains was compared to the growth of the WT PCNA-expressing strain following spotting onto selective agar plates (see Material and Methods). Growth rates on the agar plates were scored and tabulated as follows: ++ major increase in growth; + moderate increase in growth; WT-similar growth as the WT PCNA-expressing cells; - minor decrease in growth; -- moderate decrease in growth; --- major decrease in growth. ND-Not determined.

Molecule | Y2H growth relative to WT PCNA-expressing strain: Apn2
B1 | WT
B2 | -
B3 | WT
B4 | WT
B5 | ---
B6 | WT
B7 | WT
B8 | WT

system: Rrm3; assay: as above; assay type: binding; design: key: ++: major increase in growth; +: moderate increase in growth; similar growth as the WT PCNA-expressing cells; -: minor decrease in growth; --: moderate decrease in growth; ---: major decrease in growth; conditions: spotting onto selective agar plates; PCNA fused to AD, partner to BD
Description: as §1, §2, §3

Molecule | Y2H growth relative to WT PCNA-expressing strain: Rrm3
B1 | WT
B2 | WT
B3 | WT
B4 | WT
B5 | ---
B6 | WT
B7 | WT
B8 | WT

system: Eco1; assay: as above; assay type: binding; design: key: ++: major increase in growth; +: moderate increase in growth; similar growth as the WT PCNA-expressing cells; -: minor decrease in growth; --: moderate decrease in growth; ---: major decrease in growth; conditions: spotting onto selective agar plates; PCNA fused to AD, partner to BD
Description: as §1, §2, §3

Molecule | Y2H growth relative to WT PCNA-expressing strain: Eco1
B1 | WT
B2 | WT
B3 | WT
B4 | WT
B5 | ---
B6 | WT
B7 | WT
B8 | WT

system: Rfc1; assay: as above; assay type: binding; design: key: ++: major increase in growth; +: moderate increase in growth; similar growth as the WT PCNA-expressing cells; -: minor decrease in growth; --: moderate decrease in growth; ---: major decrease in growth; conditions: spotting onto selective agar plates; PCNA fused to AD, partner to BD
Description: as §1, §2, §3

Molecule | Y2H growth relative to WT PCNA-expressing strain: Rfc1
B1 | WT
B2 | WT
B3 | WT
B4 | WT
B5 | -
B6 | WT
B7 | WT
B8 | WT

system: Cdc9; assay: as above; assay type: binding; design: key: ++: major increase in growth; +: moderate increase in growth; similar growth as the WT PCNA-expressing cells; -: minor decrease in growth; --: moderate decrease in growth; ---: major decrease in growth; conditions: spotting onto selective agar plates; PCNA fused to AD, partner to BD
Description: as §1, §2, §3

Molecule | Y2H growth relative to WT PCNA-expressing strain: Cdc9
B1 | WT
B2 | WT
B3 | -
B4 | WT
B5 | ---
B6 | WT
B7 | WT
B8 | WT

system: Msh3; assay: as above; assay type: binding; design: key: ++: major increase in growth; +: moderate increase in growth; similar growth as the WT PCNA-expressing cells; -: minor decrease in growth; --: moderate decrease in growth; ---: major decrease in growth; conditions: spotting onto selective agar plates; PCNA fused to AD, partner to BD
Description: as §1, §2, §3

Molecule | Y2H growth relative to WT PCNA-expressing strain: Msh3
B1 | ++
B2 | WT
B3 | WT
B4 | WT
B5 | ---
B6 | WT
B7 | +
B8 | WT

system: Cac1; assay: as above; assay type: binding; design: key: ++: major increase in growth; +: moderate increase in growth; similar growth as the WT PCNA-expressing cells; -: minor decrease in growth; --: moderate decrease in growth; ---: major decrease in growth; conditions: spotting onto selective agar plates; PCNA fused to AD, partner to BD
Description: as §1, §2, §3

Molecule | Y2H growth relative to WT PCNA-expressing strain: Cac1
B1 | WT
B2 | WT
B3 | WT
B4 | WT
B5 | ---
B6 | +
B7 | WT
B8 | WT
